Experiments:
[1] = biological target: JASPer-JIL-1 (JJ)-complex (FLAG-JIL-1 and untagged JASPer) (D. melanogaster) (UniProt Q9V3I5); test: pull-down; 1.5 pmol FLAG-tagged JASPer or JJ-complex pre-coupled to FLAG-M2 beads, incubated with 1.38 pmol library of 115 DNA-barcoded nucleosome types (12 fmol each) in 200 µL 20 mM Tris/Cl pH 7.5, 50 mM NaCl, 5 mM EDTA, 0.1% TWEEN 20, 4 h at 4 °C; read out by sequencing of the barcodes, relative to the unmodified nucleosome set to 1
[2] = biological target: JASPer-FLAG (D. melanogaster); test: as above
[3] = biological target: T1, JASPer (Drosophila melanogaster) (UniProt Q9VAA9); test: nucleosome library pull-down with sequencing; design: dose or concentration left out as unconfirmed; settings: H3K36me3; scale: fold enrichment over unmodified nucleosome
T1 sequence: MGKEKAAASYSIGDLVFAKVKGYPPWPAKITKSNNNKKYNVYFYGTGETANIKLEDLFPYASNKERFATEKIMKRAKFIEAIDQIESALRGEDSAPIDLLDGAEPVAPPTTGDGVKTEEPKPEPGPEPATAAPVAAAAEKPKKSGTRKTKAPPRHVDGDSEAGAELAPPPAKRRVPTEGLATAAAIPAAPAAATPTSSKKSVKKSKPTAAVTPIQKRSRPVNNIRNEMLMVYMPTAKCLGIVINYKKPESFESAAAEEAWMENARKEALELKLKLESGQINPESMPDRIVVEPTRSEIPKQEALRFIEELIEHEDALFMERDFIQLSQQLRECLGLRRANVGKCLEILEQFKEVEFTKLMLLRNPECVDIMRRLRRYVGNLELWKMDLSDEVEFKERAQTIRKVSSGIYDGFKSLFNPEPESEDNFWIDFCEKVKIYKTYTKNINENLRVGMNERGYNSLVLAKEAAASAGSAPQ

[4] = biological target: JASPer (untagged, in JJ-complex);JIL-1 (Drosophila melanogaster;Drosophila melanogaster) (UniProt Q9V3I5); test: nucleosome library pull-down with sequencing; settings: H3K36me3; DNA EMSA: 50 mM HEPES pH 7.6, 50 mM NaCl, 10% glycerol, 2 mM MgCl2, 10% BSA, RT 10 min; RNA EMSA: 25 mM HEPES pH 7.6, 100 mM KCl, 3 mM MgCl2, 1 mM DTT, 5% …; scale: fold enrichment over unmodified nucleosome
Chain of JASPer (untagged, in JJ-complex);JIL-1 (Drosophila melanogaster;Drosophila melanogaster) (Q9V3I5 whole entry, looked up, one chain of several): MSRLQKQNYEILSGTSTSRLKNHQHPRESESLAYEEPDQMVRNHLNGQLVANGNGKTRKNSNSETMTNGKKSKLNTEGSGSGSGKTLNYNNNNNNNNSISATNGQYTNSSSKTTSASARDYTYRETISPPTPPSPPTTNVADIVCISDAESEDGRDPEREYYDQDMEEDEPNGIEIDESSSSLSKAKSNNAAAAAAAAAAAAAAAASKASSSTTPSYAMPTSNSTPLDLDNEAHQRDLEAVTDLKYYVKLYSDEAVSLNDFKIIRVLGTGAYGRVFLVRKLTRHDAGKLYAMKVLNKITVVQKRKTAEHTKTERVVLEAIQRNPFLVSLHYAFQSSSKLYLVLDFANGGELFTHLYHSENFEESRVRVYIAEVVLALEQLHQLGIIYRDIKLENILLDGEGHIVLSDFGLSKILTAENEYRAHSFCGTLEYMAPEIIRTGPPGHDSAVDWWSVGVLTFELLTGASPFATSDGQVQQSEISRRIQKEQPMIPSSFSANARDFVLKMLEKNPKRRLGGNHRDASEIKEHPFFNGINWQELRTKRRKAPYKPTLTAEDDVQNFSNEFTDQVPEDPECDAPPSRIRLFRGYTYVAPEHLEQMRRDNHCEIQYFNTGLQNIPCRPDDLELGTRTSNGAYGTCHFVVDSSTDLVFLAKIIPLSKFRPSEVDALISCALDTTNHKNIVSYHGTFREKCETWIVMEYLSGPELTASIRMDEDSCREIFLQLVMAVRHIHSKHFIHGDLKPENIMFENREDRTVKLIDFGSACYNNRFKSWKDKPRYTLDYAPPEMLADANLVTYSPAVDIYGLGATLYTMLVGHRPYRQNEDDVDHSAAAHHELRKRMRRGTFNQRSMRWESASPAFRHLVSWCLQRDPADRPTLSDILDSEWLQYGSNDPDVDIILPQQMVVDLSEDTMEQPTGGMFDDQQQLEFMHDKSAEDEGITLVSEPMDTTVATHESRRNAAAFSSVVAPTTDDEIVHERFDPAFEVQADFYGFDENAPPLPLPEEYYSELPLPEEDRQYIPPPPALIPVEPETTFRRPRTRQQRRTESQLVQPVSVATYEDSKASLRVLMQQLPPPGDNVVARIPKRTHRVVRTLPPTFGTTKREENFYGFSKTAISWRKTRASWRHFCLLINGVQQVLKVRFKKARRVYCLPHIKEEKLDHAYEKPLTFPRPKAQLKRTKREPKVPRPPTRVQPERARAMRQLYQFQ

Chain of JASPer-JIL-1 (JJ)-complex (FLAG-JIL-1 and untagged JASPer) (D. melanogaster) (Q9V3I5 whole entry, one chain of several): as the sequence (Q9V3I5 whole entry, looked up, one chain of several) above

| Substance | fold enrichment over the unmodified nucleosome [1] | fold enrichment relative to the unmodified nucleosome [2] | binding signal [3] | binding signal [4] |
| --- | --- | --- | --- | --- |
| nucleosome bearing the single H3K36me3 modification (complex) | 70 fold | 40 fold |  |  |
| H3K36me3 mononucleosome (barcoded library) |  |  | 40 | 70 |
